B1: MEDI0680: anti-PD-1 antibody (antibody, V domains shown)
VH: EVQLVESGGGLVQPGGSLRLSCAASGFTFSDYGMHWVRQAPGKGLEWVAYISSGSYTIYSADSVKGRFTISRDNAKNTLYLQMSSLRAEDTAVYYCARRGYGSFYEYYFDYWGQGTTVTVSS
VL: QIVLTQSPATLSLSPGERATLSCSASSSVSYMYWYQQKPGQAPRLLIYLTSNRATGIPARFSGSGSGTDYSSTLTISSLEPEDFAVYYCQQWSSNPFTFGQGTKLEIK
B2: LO115: anti-PD-1 antibody (antibody)
heavy: EVQLVESGGGLVQPGGSLRLSCAASGFTFSDYGMHWVRQAPGKGLEWVAYISSGSYTIYSADSVKGRFTISRDNAKNSLYLQMNSLRAEDTAVYYCARRAPNSFYEYYFDYWGQGTTVTVSSASTKGPSVFPLAPSSKSTSGGTAALGCLVKDYFPEPVTVSWNSGALTSGVHTFPAVLQSSGLYSLSSVVTVPSSSLGTQTYICNVNHKPSNTKVDKRVEPKSCDKTHTCPPCPAPEFEGGPSVFLFPPKPKDTLMISRTPEVTCVVVDVSHEDPEVKFNWYVDGVEVHNAKTKPREEQYNSTYRVVSVLTVLHQDWLNGKEYKCKVSNKALPASIEKTISKAKGQPREPQVCTLPPSREEMTKNQVSLSCAVKGFYPSDIAVEWESNGQPENNYKTTPPVLDSDGSFFLVSKLTVDKSRWQQGNVFSCSVMHEALHNHYTQKSLSLSPGK
light: QIVLTQSPATLSLSPGERATLSCSASSKHTNLYWSRHMYWYQQKPGQAPRLLIYLTSNRATGIPARFSGSGSGTDFTLTISSLEPEDFAVYYCQQWSSNPFTFGQGTKLEIKRTVAAPSVFIFPPSDEQLKSGTASVVCLLNNFYPREAKVQWKVDNALQSGNSQESVTEQDSKDSTYSLSSTLTLSKADYEKHK

Key:
[1] = system: PD-1 expression in peripheral blood; test: PD-1 expression in peripheral blood after anti-CTLA-4 pre-treatment, Taqman qRT-PCR; format: in vivo, human
Protocol: The effect of anti-CTLA-4 antibody (tremelimumab) pre-treatment on PD-1 expression in peripheral blood was tested by Taqman qRT-PCR.

PD-1 expressing T cells = test: Magnetic bead enrichment (selection) of PD-1 expressing T cells with biotinylated anti-PD-1 antibody; format: cell-based, human; settings: 4° C.
Protocol: Donor blood was obtained in the form of human peripheral blood through standard leukapheresis or blood draw protocols. The red blood cells were removed from the donor blood by centrifugation protocols known in the art. Briefly, the peripheral blood was centrifuged, the supernatant discarded, the pellet was resuspended in ammonium chloride potassium (ACK) buffer, the ACK pellet suspension was incubated at room temperature, and the cells were washed twice in wash buffer to produce a cell pellet.
Enrichment of the PD-1 expressing cells was then performed. The washed cell pellet was resuspended in wash buffer and cell count determined. Wash buffer was added to bring the cell density to 100×10^6 cells per mL. 1 μg/mL MEDI3097 antibody was added to the cells to produce an antibody-cell mixture comprising cells and MEDI3097 antibody. The antibody mixture was incubated at 4° C. for 15 minutes and then centrifuged and washed twice with wash buffer. Wash buffer was added to bring cell density to 125×10^6 cells per mL. Anti-biotin beads were then added to the cells at a concentration of 2 mL beads per 1 billion cells to produce a bead mixture. […]
Enrichment of PD-1 expressing T cells was performed after red blood cells were removed from leukapheresis products. The washed cell pellet was resuspended in wash buffer and cell count determined. […]

PD-1 = PD-1 (Homo sapiens, UniProt Q15116); test: Binding affinity of anti-PD-1 antibody
Sequence of PD-1 (Q15116 25-288): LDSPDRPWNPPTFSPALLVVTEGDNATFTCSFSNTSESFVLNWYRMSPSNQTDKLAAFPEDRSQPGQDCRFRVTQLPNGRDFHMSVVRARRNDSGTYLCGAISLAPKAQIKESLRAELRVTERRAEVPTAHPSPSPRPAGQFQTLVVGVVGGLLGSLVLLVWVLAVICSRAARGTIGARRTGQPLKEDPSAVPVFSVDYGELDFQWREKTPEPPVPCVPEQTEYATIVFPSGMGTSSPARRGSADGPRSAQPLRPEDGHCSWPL

Molecule	overall survival (OS) of patients with induced PD-1 expression ([1]; high responder group versus <1.5 fold group, clinical trial NTC02527434)	increase PD-1 expression in peripheral blood ([1]; in a group of patients, after 9-10 days) [fold]	antibody concentration at which impact on PD-1 expression level plateaued (PD-1 expressing T cells)	binding affinity (PD-1)
tremelimumab: anti-CTLA-4 antibody	improved overall survival	> 1.5		
B1			around 5.0 μg/mL	low binding affinity
B2				high binding affinity
